The values that follow are results of earlier work, collected in publication PMC10955226.

The target of the series is WWC1 WW tandem (Homo sapiens) (UniProt Q8IX03).
Sequence of UniProt Q8IX03 (Q8IX03 6-86): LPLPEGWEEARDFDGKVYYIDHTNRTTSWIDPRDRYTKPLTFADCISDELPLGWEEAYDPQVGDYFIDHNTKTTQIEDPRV

The Kd is the constant that tells how readily two partners part at equilibrium. On to JCAD PPxY motifs (from UniProt Q9P266), for which the Kd is 0.058 µM.
